Experimental data as given in US20210130436A1 (published 2021).
Changes are numbered by the printed parent chain. Numbers in names are those of the source.

B1: CD80 M47V/V68M/K89N IgV-Fc (Fc fusion, not shown: small tags and cut ends; a dimerising Fc or GST)
chain: VIHVTKEVKEVATLSCGHNVSVEELAQTRIYWQKEKKMVLTMMSGDVNIWPEYKNRTIFDITNNLSIMILALRPSDEGTYECVVLKYENDAFKREHLAEVTLSVKAD
B2: CD80 E35D/N48K/V68M IgV-Fc (Fc fusion, not shown: small tags and cut ends; a dimerising Fc or GST)
chain: B1 chain with E35D, V47M, N48K, N89K
B3: variant CD80 IgV-Fc (inert) H18V/E35D/M47V/V68M/A71G/D90G (Fc fusion)
chain: B1 chain with H18V, E35D, A71G, N89K, D90G
notes: not shown: inert human IgG1 Fc
B4: variant CD80 IgV-Fc (inert) H18V/A26D/E35D/M47V/V68M/A71G/D90G (Fc fusion)
chain: B1 chain with H18V, A26D, E35D, A71G, N89K, D90G
notes: as for B3
B5: variant CD80 IgV-Fc (inert) H18L/A26N/D46E/V68M/A71G/D90G (Fc fusion)
chain: B1 chain with H18L, A26N, D46E, V47M, A71G, N89K, D90G
notes: as for B3
B6: variant CD80 IgV-Fc (inert) H18L/E35D/M47V/V68M/A71G/D90G (Fc fusion)
chain: B1 chain with H18L, E35D, A71G, N89K, D90G
notes: as for B3
B7: variant CD80 IgV-Fc (inert) H18F/A26D/E35D/D46E/M47T/V68M/A71G/D90G (Fc fusion)
chain: B1 chain with H18F, A26D, E35D, D46E, V47T, A71G, N89K, D90G
notes: as for B3
B8: variant CD80 IgV-Fc (inert) H18F/A26N/E35D/M47V/V68M/A71G/D90K (Fc fusion)
chain: B1 chain with H18F, A26N, E35D, A71G, N89K, D90K
notes: as for B3
B9: variant CD80 IgV-Fc (inert) H18C/A26P/E35D/M47L/V68M/A71G (Fc fusion)
chain: B1 chain with H18C, A26P, E35D, V47L, A71G, N89K
notes: as for B3
B10: variant CD80 IgV-Fc (inert) H18I/A26P/E35D/M47V/V68M/A71G (Fc fusion)
chain: B1 chain with H18I, A26P, E35D, A71G, N89K
notes: as for B3
B11: variant CD80 IgV-Fc (inert) H18V/A26G/E35D/M47V/V68M/A71G/D90G (Fc fusion)
chain: B1 chain with H18V, A26G, E35D, A71G, N89K, D90G
notes: as for B3
B12: variant CD80 IgV-Fc (inert) H18T/A26N/E35D/M47L/V68M/A71G (Fc fusion)
chain: B1 chain with H18T, A26N, E35D, V47L, A71G, N89K
notes: as for B3

Molecular target: T1, CD28 endogenously expressed on Jurkat/IL2 reporter cells (human, UniProt P10747 19-220)
T1 construct: whole, on cells; Target on Jurkat cells; also called Jurkats (CD28)
Assay: flow cytometry, Jurkat cells (CD28), Fc fusion at 33.3 nM

For B1, which “MFI at 33.3 nM” value is on record?
Its value is 1320 MFI.

With B2 as the binder, how does the “MFI at 33.3 nM” value read?
Its value is 642 MFI.

Molecular target: T2, human CTLA4 expressed on CHO cells (human, UniProt P16410 36-223)
T2 construct: whole, on cells; Target on CHO cells stably expressing CTLA4; also called huCTLA4
Assay: flow cytometry, CHO cells stably expressing CTLA4, Fc fusion at 33.3 nM

T2 sequence (P16410 36-223): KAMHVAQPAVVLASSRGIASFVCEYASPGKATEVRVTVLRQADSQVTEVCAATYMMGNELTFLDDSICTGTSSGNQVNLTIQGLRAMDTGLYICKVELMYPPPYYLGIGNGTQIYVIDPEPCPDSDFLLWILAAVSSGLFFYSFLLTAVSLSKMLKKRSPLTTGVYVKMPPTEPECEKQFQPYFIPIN

Which “MFI at 33.3 nM” value does the source give for B1 here?
The value was 24800 MFI.

How did the “MFI at 33.3 nM” value turn out when B2 was run?
Its value is 33600 MFI.

Molecular target: T3, human PD-L1 expressed on CHO cells (human, UniProt Q9NZQ7 19-290)
T3 construct: whole, on cells; Target on CHO cells stably expressing PD-L1; also called huPD-L1
Assay: flow cytometry, CHO cells stably expressing PD-L1, Fc fusion at 33.3 nM

T3 sequence (Q9NZQ7 19-290): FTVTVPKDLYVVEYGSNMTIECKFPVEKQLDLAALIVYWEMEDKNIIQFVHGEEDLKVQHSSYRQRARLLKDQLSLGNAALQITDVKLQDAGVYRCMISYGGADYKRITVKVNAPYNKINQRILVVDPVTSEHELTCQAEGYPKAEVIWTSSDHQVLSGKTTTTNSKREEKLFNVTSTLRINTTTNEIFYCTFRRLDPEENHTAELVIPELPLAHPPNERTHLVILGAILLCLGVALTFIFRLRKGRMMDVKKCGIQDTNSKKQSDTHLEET

How did the “MFI at 33.3 nM” value turn out when B1 was run?
Its value is 11800 MFI.

Molecular target: T4, human PD-L1 (human, UniProt Q9NZQ7 19-290)
T4 construct: whole, on cells; CHO cells stably expressing huPD-L1; also called huPD-L1
Assay: flow cytometry MFI relative to WT CD80 IgV-Fc, CHO/huPD-L1 cells, 33.3 nM

T4 sequence (Q9NZQ7 19-290): as above

Which “Fold change to WT CD80” value does the source give for B3 here?
The value was 264 fold.

For B4, which “Fold change to WT CD80” value is on record?
The value was 409 fold.

For B5, which “Fold change to WT CD80” value is on record?
The value was 412 fold.

Which “Fold change to WT CD80” value does the source give for B6 here?
The value was 392 fold.

With B7 as the binder, how does the “Fold change to WT CD80” value read?
Its value is 167 fold.

With B8 as the binder, how does the “Fold change to WT CD80” value read?
Its value is 136 fold.

B9 was tested. Which “Fold change to WT CD80” value did it give?
Its value is 406 fold.

B10 was tested. Which “Fold change to WT CD80” value did it give?
Its value is 393 fold.

For B11, which “Fold change to WT CD80” value is on record?
The value was 401 fold.

Which “Fold change to WT CD80” value does the source give for B12 here?
The value was 415 fold.

Molecular target: T5, human CTLA-4 (human, UniProt P16410 36-223)
T5 construct: whole, on cells; CHO cells stably expressing huCTLA4; also called huCTLA4
Assay: flow cytometry MFI relative to WT CD80 IgV-Fc, CHO/huCTLA-4 cells, 33.3 nM

T5 sequence (P16410 36-223): as the sequence (P16410 36-223) above

Which “Fold change to WT CD80” value does the source give for B3 here?
The value was 12.1 fold.

B4 was tested. Which “Fold change to WT CD80” value did it give?
Its value is 16 fold.

How did the “Fold change to WT CD80” value turn out when B5 was run?
The value was 12.3 fold.

For B6, which “Fold change to WT CD80” value is on record?
The value was 14.7 fold.

For B7, which “Fold change to WT CD80” value is on record?
Its value is 12.4 fold.

With B8 as the binder, how does the “Fold change to WT CD80” value read?
Its value is 11 fold.

B9 was tested. Which “Fold change to WT CD80” value did it give?
The value was 16.9 fold.

Which “Fold change to WT CD80” value does the source give for B10 here?
The value was 15.8 fold.

For B11, which “Fold change to WT CD80” value is on record?
The value was 18.4 fold.

How did the “Fold change to WT CD80” value turn out when B12 was run?
Its value is 15.1 fold.

Molecular target: T6, human CD28 (human, UniProt P10747 19-220)
T6 construct: whole, on cells; Jurkat/IL2 reporter cells, which endogenously express CD28
Assay: flow cytometry MFI relative to WT CD80 IgV-Fc, Jurkat cells (CD28), 33.3 nM

B3 was tested. Which “Fold change to WT CD80” value did it give?
The value was 20.7 fold.

B4 was tested. Which “Fold change to WT CD80” value did it give?
Its value is 61.3 fold.

Which “Fold change to WT CD80” value does the source give for B5 here?
The value was 71.1 fold.

Which “Fold change to WT CD80” value does the source give for B6 here?
Its value is 62.2 fold.

For B7, which “Fold change to WT CD80” value is on record?
The value was 59.1 fold.

B8 was tested. Which “Fold change to WT CD80” value did it give?
The value was 31.1 fold.

B9 was tested. Which “Fold change to WT CD80” value did it give?
Its value is 18.7 fold.

With B10 as the binder, how does the “Fold change to WT CD80” value read?
The value was 25.2 fold.

How did the “Fold change to WT CD80” value turn out when B11 was run?
Its value is 80.3 fold.

How did the “Fold change to WT CD80” value turn out when B12 was run?
Its value is 13.4 fold.

Molecular target: T4, human PD-L1
Assay: flow cytometry, MFI on CHO/huPD-L1 cells divided by MFI on Jurkat cells (CD28), 33.3 nM

For B3, which “Ratio of PDL1:CD28” value is on record?
Its value is 20.6 ratio.

B4 was tested. Which “Ratio of PDL1:CD28” value did it give?
The value was 10.8 ratio.

B5 was tested. Which “Ratio of PDL1:CD28” value did it give?
The value was 9.4 ratio.

B6 was tested. Which “Ratio of PDL1:CD28” value did it give?
The value was 10.2 ratio.

How did the “Ratio of PDL1:CD28” value turn out when B7 was run?
The value was 4.6 ratio.

For B8, which “Ratio of PDL1:CD28” value is on record?
The value was 7.1 ratio.

B9 was tested. Which “Ratio of PDL1:CD28” value did it give?
Its value is 35.2 ratio.

With B10 as the binder, how does the “Ratio of PDL1:CD28” value read?
The value was 25.2 ratio.

How did the “Ratio of PDL1:CD28” value turn out when B11 was run?
The value was 8.1 ratio.

How did the “Ratio of PDL1:CD28” value turn out when B12 was run?
The value was 50.1 ratio.

Molecular target: T4, human PD-L1
Assay: flow cytometry, CHO cells stably expressing huPD-L1, 33.3 nM Fc fusion, PE anti-human Fc

How did the “MFI at 33.3 nM” value turn out when B3 was run?
The value was 43600 MFI.

For B4, which “MFI at 33.3 nM” value is on record?
Its value is 67500 MFI.

Which “MFI at 33.3 nM” value does the source give for B5 here?
The value was 68000 MFI.

With B6 as the binder, how does the “MFI at 33.3 nM” value read?
Its value is 64800 MFI.

Which “MFI at 33.3 nM” value does the source give for B7 here?
Its value is 27500 MFI.

How did the “MFI at 33.3 nM” value turn out when B8 was run?
The value was 22400 MFI.

How did the “MFI at 33.3 nM” value turn out when B9 was run?
Its value is 67000 MFI.

B10 was tested. Which “MFI at 33.3 nM” value did it give?
The value was 64900 MFI.

B11 was tested. Which “MFI at 33.3 nM” value did it give?
The value was 66200 MFI.

With B12 as the binder, how does the “MFI at 33.3 nM” value read?
The value was 68500 MFI.

Molecular target: T5, human CTLA-4
Assay: flow cytometry, CHO cells stably expressing huCTLA-4, 33.3 nM Fc fusion, PE anti-human Fc

With B3 as the binder, how does the “MFI at 33.3 nM” value read?
The value was 16800 MFI.

With B4 as the binder, how does the “MFI at 33.3 nM” value read?
The value was 22100 MFI.

For B5, which “MFI at 33.3 nM” value is on record?
The value was 17000 MFI.

With B6 as the binder, how does the “MFI at 33.3 nM” value read?
The value was 20300 MFI.

How did the “MFI at 33.3 nM” value turn out when B7 was run?
Its value is 17200 MFI.

Which “MFI at 33.3 nM” value does the source give for B8 here?
The value was 15200 MFI.

With B9 as the binder, how does the “MFI at 33.3 nM” value read?
The value was 23400 MFI.

B10 was tested. Which “MFI at 33.3 nM” value did it give?
The value was 21900 MFI.

For B11, which “MFI at 33.3 nM” value is on record?
Its value is 25400 MFI.

Which “MFI at 33.3 nM” value does the source give for B12 here?
The value was 20900 MFI.

Molecular target: T6, human CD28
Assay: flow cytometry, Jurkat/IL2 reporter cells (endogenous CD28), 33.3 nM Fc fusion, PE anti-human Fc

With B3 as the binder, how does the “MFI at 33.3 nM” value read?
The value was 2120 MFI.

Which “MFI at 33.3 nM” value does the source give for B4 here?
The value was 6250 MFI.

With B5 as the binder, how does the “MFI at 33.3 nM” value read?
The value was 7250 MFI.

For B6, which “MFI at 33.3 nM” value is on record?
Its value is 6350 MFI.

For B7, which “MFI at 33.3 nM” value is on record?
Its value is 6030 MFI.

With B8 as the binder, how does the “MFI at 33.3 nM” value read?
Its value is 3170 MFI.

B9 was tested. Which “MFI at 33.3 nM” value did it give?
The value was 1910 MFI.

B10 was tested. Which “MFI at 33.3 nM” value did it give?
Its value is 2570 MFI.

How did the “MFI at 33.3 nM” value turn out when B11 was run?
Its value is 8190 MFI.

With B12 as the binder, how does the “MFI at 33.3 nM” value read?
Its value is 1370 MFI.
